Here are results for one substance from publication PMC8666976.

Assay [1] deals with human C3b (human) (UniProt P01024). Kind of assay: ELISA; plates coated with human C3b at 15 nM overnight at 4°C in 50 mM NaHCO3 buffer pH 9.6, blocked with 4% BSA in PBS-T; serially diluted FH CCP 15–20 or CCP 18–20 samples (concentrated supernatants) incubated 1 h at 37°C; bound FH detected with goat antiserum to human FH.
Assay [2] shares this target. The assay is described as above. The source holds these as a separate data set.

Read-outs that look alike come from different tables or passages of the source.

Sequence of UniProt P01024 (P01024 749-1663, chain 1 of 2): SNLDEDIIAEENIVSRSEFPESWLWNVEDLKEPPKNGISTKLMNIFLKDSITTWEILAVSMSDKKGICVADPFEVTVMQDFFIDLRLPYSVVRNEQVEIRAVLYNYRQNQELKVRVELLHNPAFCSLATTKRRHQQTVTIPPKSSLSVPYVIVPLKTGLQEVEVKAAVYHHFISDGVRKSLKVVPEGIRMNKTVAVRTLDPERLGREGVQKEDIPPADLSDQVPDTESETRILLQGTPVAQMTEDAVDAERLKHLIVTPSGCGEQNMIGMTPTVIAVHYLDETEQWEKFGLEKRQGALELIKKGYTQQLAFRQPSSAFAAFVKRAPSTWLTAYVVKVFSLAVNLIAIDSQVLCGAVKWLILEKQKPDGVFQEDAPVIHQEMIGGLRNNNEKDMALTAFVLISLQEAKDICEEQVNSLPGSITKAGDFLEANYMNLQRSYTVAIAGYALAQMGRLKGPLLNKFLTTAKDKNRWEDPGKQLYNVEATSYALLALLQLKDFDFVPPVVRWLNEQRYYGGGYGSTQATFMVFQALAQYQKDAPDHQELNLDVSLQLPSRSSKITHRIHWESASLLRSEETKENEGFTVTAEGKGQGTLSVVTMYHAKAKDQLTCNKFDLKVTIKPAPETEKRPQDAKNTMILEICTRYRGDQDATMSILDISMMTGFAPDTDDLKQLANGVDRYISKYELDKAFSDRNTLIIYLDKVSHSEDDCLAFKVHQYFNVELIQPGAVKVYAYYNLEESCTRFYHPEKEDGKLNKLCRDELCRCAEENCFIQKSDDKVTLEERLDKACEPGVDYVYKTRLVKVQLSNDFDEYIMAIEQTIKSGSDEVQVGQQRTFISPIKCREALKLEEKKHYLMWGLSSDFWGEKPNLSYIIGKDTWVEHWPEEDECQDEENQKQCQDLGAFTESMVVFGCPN
Sequence of UniProt P01024 (P01024 749-1663, chain 2 of 2): as the sequence (P01024 749-1663, chain 1 of 2) above

As for “Factor H CCP 15–20 fragment, variant T956M (domain or fragment)”, the percent decrease in C3b binding compared to WT is 30% in the assay with human C3b (human) [1] and 35% with human C3b (human) [2].
